Series [1] can be described thus: not described (stated in discussion only). The note with it: glycan lost; control: wild type MARCO.
The nature of series [2]: live immunostaining; surface biotinylation pull-down. The note with it: glycan lost; control: wild type SR-AI.
The nature of series [3]: FAM-oAβ uptake, confocal fluorescence quantification, COS-7. The note with it: glycan lost; control: wild type SR-AI.

B1: MARCO: N83Q-136Q (protein)
parent chain: MRNKKILKEDELLSETQQAAFHQIAMEPFEINVPKPKRRNGVNFSLAVVVIYLILLTAGAGLLVVQVLNLQARLRVLEMYFLNDTLAAEDSPSFSLLQSAHPGEHLAQGASRLQVLQAQLTWVRVSHEHLLQRVDNFTQNPGMFRIKGEQGAPGLQGHKGAMGMPGAPGPPGPPAEKGAKGAMGRDGATGPSGPQGPPGVKGEAGLQGPQGAPGKQGATGTPGPQGEKGSKGDGGLIGPKGETGTKGEKGDLGLPGSKGDRGMKGDAGVMGPPGAQGSKGDFGRPGPPGLAGFPGAKGDQGQPGLQGVPGPPGAVGHPGAKGEPGSAGSPGRAGLPGSPGSPGATGLKGSKGDTGLQGQQGRKGESGVPGPAGVKGEQGSPGLAGPKGAPGQAGQKGDQGVKGSSGEQGVKGEKGERGENSVSVRIVGSSNRGRAEVYYSGTWGTICDDEWQNSDAIVFCRMLGYSKGRALYKVGAGTGQIWLDNVQCRGTESTLWSCTKNSWGHHDCSHEEDAGVECSV
On to B1, for which the localisation_or_trafficking entry in series [1] is listed as “abolishes”.

B2: SR-AI (scavenger receptor A type I): N143Q-N184Q (protein)
parent chain: MEQWDHFHNQQEDTDSCSESVKFDARSMTALLPPNPKNSPSLQEKLKSFKAALIALYLLVFAVLIPLIGIVAAQLLKWETKNCSVSSTNANDITQSLTGKGNDSEEEMRFQEVFMEHMSNMEKRIQHILDMEANLMDTEHFQNFSMTTDQRFNDILLQLSTLFSSVQGHGNAIDEISKSLISLNTTLLDLQLNIENLNGKIQENTFKQQEEISKLEERVYNVSAEIMAMKEEQVHLEQEIKGEVKVLNNITNDLRLKDWEHSQTLRNITLIQGPPGPPGEKGDRGPTGESGPRGFPGPIGPPGLKGDRGAIGFPGSRGLPGYAGRPGNSGPKGQKGEKGSGNTLTPFTKVRLVGGSGPHEGRVEILHSGQWGTICDDRWEVRVGQVVCRSLGYPGVQAVHKAAHFGQGTGPIWLNEVFCFGRESSIEECKIRQWGTRACSHSEDAGVTCTL
With B2, the localisation_or_trafficking result in series [2] was “no change”. The “other: ligand internalisation” value in series [3] was “decreases”.

B3: SR-AI (scavenger receptor A type I): N102Q (protein)
parent chain: MEQWDHFHNQQEDTDSCSESVKFDARSMTALLPPNPKNSPSLQEKLKSFKAALIALYLLVFAVLIPLIGIVAAQLLKWETKNCSVSSTNANDITQSLTGKGNDSEEEMRFQEVFMEHMSNMEKRIQHILDMEANLMDTEHFQNFSMTTDQRFNDILLQLSTLFSSVQGHGNAIDEISKSLISLNTTLLDLQLNIENLNGKIQENTFKQQEEISKLEERVYNVSAEIMAMKEEQVHLEQEIKGEVKVLNNITNDLRLKDWEHSQTLRNITLIQGPPGPPGEKGDRGPTGESGPRGFPGPIGPPGLKGDRGAIGFPGSRGLPGYAGRPGNSGPKGQKGEKGSGNTLTPFTKVRLVGGSGPHEGRVEILHSGQWGTICDDRWEVRVGQVVCRSLGYPGVQAVHKAAHFGQGTGPIWLNEVFCFGRESSIEECKIRQWGTRACSHSEDAGVTCTL
B3: the localisation_or_trafficking result in series [2] is on record as “no change”. For the same protein, in series [3], the “other: ligand internalisation” value was “no change”.

B4: SR-AI (scavenger receptor A type I): N221Q (protein)
parent chain: MEQWDHFHNQQEDTDSCSESVKFDARSMTALLPPNPKNSPSLQEKLKSFKAALIALYLLVFAVLIPLIGIVAAQLLKWETKNCSVSSTNANDITQSLTGKGNDSEEEMRFQEVFMEHMSNMEKRIQHILDMEANLMDTEHFQNFSMTTDQRFNDILLQLSTLFSSVQGHGNAIDEISKSLISLNTTLLDLQLNIENLNGKIQENTFKQQEEISKLEERVYNVSAEIMAMKEEQVHLEQEIKGEVKVLNNITNDLRLKDWEHSQTLRNITLIQGPPGPPGEKGDRGPTGESGPRGFPGPIGPPGLKGDRGAIGFPGSRGLPGYAGRPGNSGPKGQKGEKGSGNTLTPFTKVRLVGGSGPHEGRVEILHSGQWGTICDDRWEVRVGQVVCRSLGYPGVQAVHKAAHFGQGTGPIWLNEVFCFGRESSIEECKIRQWGTRACSHSEDAGVTCTL
Turning to B4, in series [2], the localisation_or_trafficking result was “no change”. Further, the “other: ligand internalisation” value in series [3] is recorded as “no change”.

B5: SR-AI (scavenger receptor A type I): N102Q-N184Q (protein)
parent chain: MEQWDHFHNQQEDTDSCSESVKFDARSMTALLPPNPKNSPSLQEKLKSFKAALIALYLLVFAVLIPLIGIVAAQLLKWETKNCSVSSTNANDITQSLTGKGNDSEEEMRFQEVFMEHMSNMEKRIQHILDMEANLMDTEHFQNFSMTTDQRFNDILLQLSTLFSSVQGHGNAIDEISKSLISLNTTLLDLQLNIENLNGKIQENTFKQQEEISKLEERVYNVSAEIMAMKEEQVHLEQEIKGEVKVLNNITNDLRLKDWEHSQTLRNITLIQGPPGPPGEKGDRGPTGESGPRGFPGPIGPPGLKGDRGAIGFPGSRGLPGYAGRPGNSGPKGQKGEKGSGNTLTPFTKVRLVGGSGPHEGRVEILHSGQWGTICDDRWEVRVGQVVCRSLGYPGVQAVHKAAHFGQGTGPIWLNEVFCFGRESSIEECKIRQWGTRACSHSEDAGVTCTL
Take B5: the “other: ligand internalisation” value in series [3] is “no change”.

B6: SR-AI (scavenger receptor A type I): N143Q (protein)
parent chain: MEQWDHFHNQQEDTDSCSESVKFDARSMTALLPPNPKNSPSLQEKLKSFKAALIALYLLVFAVLIPLIGIVAAQLLKWETKNCSVSSTNANDITQSLTGKGNDSEEEMRFQEVFMEHMSNMEKRIQHILDMEANLMDTEHFQNFSMTTDQRFNDILLQLSTLFSSVQGHGNAIDEISKSLISLNTTLLDLQLNIENLNGKIQENTFKQQEEISKLEERVYNVSAEIMAMKEEQVHLEQEIKGEVKVLNNITNDLRLKDWEHSQTLRNITLIQGPPGPPGEKGDRGPTGESGPRGFPGPIGPPGLKGDRGAIGFPGSRGLPGYAGRPGNSGPKGQKGEKGSGNTLTPFTKVRLVGGSGPHEGRVEILHSGQWGTICDDRWEVRVGQVVCRSLGYPGVQAVHKAAHFGQGTGPIWLNEVFCFGRESSIEECKIRQWGTRACSHSEDAGVTCTL
Take B6: the localisation_or_trafficking entry in series [2] was “no change”. The “other: ligand internalisation” value in series [3] is recorded as “no change”.

B7: SR-AI (scavenger receptor A type I): N267Q (protein)
parent chain: MEQWDHFHNQQEDTDSCSESVKFDARSMTALLPPNPKNSPSLQEKLKSFKAALIALYLLVFAVLIPLIGIVAAQLLKWETKNCSVSSTNANDITQSLTGKGNDSEEEMRFQEVFMEHMSNMEKRIQHILDMEANLMDTEHFQNFSMTTDQRFNDILLQLSTLFSSVQGHGNAIDEISKSLISLNTTLLDLQLNIENLNGKIQENTFKQQEEISKLEERVYNVSAEIMAMKEEQVHLEQEIKGEVKVLNNITNDLRLKDWEHSQTLRNITLIQGPPGPPGEKGDRGPTGESGPRGFPGPIGPPGLKGDRGAIGFPGSRGLPGYAGRPGNSGPKGQKGEKGSGNTLTPFTKVRLVGGSGPHEGRVEILHSGQWGTICDDRWEVRVGQVVCRSLGYPGVQAVHKAAHFGQGTGPIWLNEVFCFGRESSIEECKIRQWGTRACSHSEDAGVTCTL
B7: the localisation_or_trafficking result in series [2] is recorded as “no change”. Besides, the “other: ligand internalisation” value in series [3] was “no change”.

B8: SR-AI (scavenger receptor A type I): N184Q (protein)
parent chain: MEQWDHFHNQQEDTDSCSESVKFDARSMTALLPPNPKNSPSLQEKLKSFKAALIALYLLVFAVLIPLIGIVAAQLLKWETKNCSVSSTNANDITQSLTGKGNDSEEEMRFQEVFMEHMSNMEKRIQHILDMEANLMDTEHFQNFSMTTDQRFNDILLQLSTLFSSVQGHGNAIDEISKSLISLNTTLLDLQLNIENLNGKIQENTFKQQEEISKLEERVYNVSAEIMAMKEEQVHLEQEIKGEVKVLNNITNDLRLKDWEHSQTLRNITLIQGPPGPPGEKGDRGPTGESGPRGFPGPIGPPGLKGDRGAIGFPGSRGLPGYAGRPGNSGPKGQKGEKGSGNTLTPFTKVRLVGGSGPHEGRVEILHSGQWGTICDDRWEVRVGQVVCRSLGYPGVQAVHKAAHFGQGTGPIWLNEVFCFGRESSIEECKIRQWGTRACSHSEDAGVTCTL
For the protein B8, in series [2], the localisation_or_trafficking result was “no change”. Besides, the “other: ligand internalisation” value in series [3] was “no change”.

B9: SR-AI (scavenger receptor A type I): N82Q (protein)
parent chain: MEQWDHFHNQQEDTDSCSESVKFDARSMTALLPPNPKNSPSLQEKLKSFKAALIALYLLVFAVLIPLIGIVAAQLLKWETKNCSVSSTNANDITQSLTGKGNDSEEEMRFQEVFMEHMSNMEKRIQHILDMEANLMDTEHFQNFSMTTDQRFNDILLQLSTLFSSVQGHGNAIDEISKSLISLNTTLLDLQLNIENLNGKIQENTFKQQEEISKLEERVYNVSAEIMAMKEEQVHLEQEIKGEVKVLNNITNDLRLKDWEHSQTLRNITLIQGPPGPPGEKGDRGPTGESGPRGFPGPIGPPGLKGDRGAIGFPGSRGLPGYAGRPGNSGPKGQKGEKGSGNTLTPFTKVRLVGGSGPHEGRVEILHSGQWGTICDDRWEVRVGQVVCRSLGYPGVQAVHKAAHFGQGTGPIWLNEVFCFGRESSIEECKIRQWGTRACSHSEDAGVTCTL
On to B9, for which the localisation_or_trafficking entry in series [2] is given as “no change”. In addition, the “other: ligand internalisation” value in series [3] is “no change”.

B10: SR-AI (scavenger receptor A type I): N102Q-N143Q (protein)
parent chain: MEQWDHFHNQQEDTDSCSESVKFDARSMTALLPPNPKNSPSLQEKLKSFKAALIALYLLVFAVLIPLIGIVAAQLLKWETKNCSVSSTNANDITQSLTGKGNDSEEEMRFQEVFMEHMSNMEKRIQHILDMEANLMDTEHFQNFSMTTDQRFNDILLQLSTLFSSVQGHGNAIDEISKSLISLNTTLLDLQLNIENLNGKIQENTFKQQEEISKLEERVYNVSAEIMAMKEEQVHLEQEIKGEVKVLNNITNDLRLKDWEHSQTLRNITLIQGPPGPPGEKGDRGPTGESGPRGFPGPIGPPGLKGDRGAIGFPGSRGLPGYAGRPGNSGPKGQKGEKGSGNTLTPFTKVRLVGGSGPHEGRVEILHSGQWGTICDDRWEVRVGQVVCRSLGYPGVQAVHKAAHFGQGTGPIWLNEVFCFGRESSIEECKIRQWGTRACSHSEDAGVTCTL
On to B10, for which the localisation_or_trafficking result in series [2] is “no change”. Also, the “other: ligand internalisation” value in series [3] is reported as “decreases”.

B11: SR-AI (scavenger receptor A type I): N249Q (protein)
parent chain: MEQWDHFHNQQEDTDSCSESVKFDARSMTALLPPNPKNSPSLQEKLKSFKAALIALYLLVFAVLIPLIGIVAAQLLKWETKNCSVSSTNANDITQSLTGKGNDSEEEMRFQEVFMEHMSNMEKRIQHILDMEANLMDTEHFQNFSMTTDQRFNDILLQLSTLFSSVQGHGNAIDEISKSLISLNTTLLDLQLNIENLNGKIQENTFKQQEEISKLEERVYNVSAEIMAMKEEQVHLEQEIKGEVKVLNNITNDLRLKDWEHSQTLRNITLIQGPPGPPGEKGDRGPTGESGPRGFPGPIGPPGLKGDRGAIGFPGSRGLPGYAGRPGNSGPKGQKGEKGSGNTLTPFTKVRLVGGSGPHEGRVEILHSGQWGTICDDRWEVRVGQVVCRSLGYPGVQAVHKAAHFGQGTGPIWLNEVFCFGRESSIEECKIRQWGTRACSHSEDAGVTCTL
In the case of B11, in series [2], the localisation_or_trafficking result is “no change”. For the same protein, the “other: ligand internalisation” value in series [3] was “no change”.

These data come from article PMC4758095.
